In patent publication US20210301011A1, “COMPOSITION FOR PROPHYLAXIS OR TREATMENT OF IL-8 RELATED DISEASES” (CHUGAI SEIYAKU KABUSHIKI KAISHA, priority 2016, published 2021):

Test system: endometriosis lesions
Type: in vivo, cynomolgus monkeys
Excerpt: Female cynomolgus monkeys of 8 to 14 years of age with regular sexual cycle (provided by the Tsukuba Primate Research Center at the National Institutes of Biomedical Innovation, Health and Nutrition) were laparotomized under anesthesia during the period corresponding to the luteal phase. The uterine corpus was removed by dissecting in a V shape. Then, the uterine corpus was cut into 5 to 10 mm cubes while leaving the smooth muscle layer of the uterus, and one and two pieces were transplanted onto the right abdominal wall and left abdominal wall (cranial and caudal sides), respectively, in such a manner that the endometrium part is in contact with the peritoneum by suturing with an absorbable suture and formed the transplant. After excision, the uterus was sutured with absorbable suture. Then, the remaining endometrial tissues were finely cut and suspended in 5 ml of 2 ng/ml Hepatocyte Growth Factor solution (R&D systems), and this was seeded in the peritoneal cavity for transplantation, followed by closure of the abdomen. Anesthesia was performed using balanced anesthesia of ketamine/xylazine (mixed at an adequate ratio of about 2:1); however, anesthesia was maintained with isoflurane depending on the maintenance period of anesthesia. The body temperature was maintained and controlled during surgery using a heating pad and the condition was monitored electrocardiographically. The antagonist Antisedan (at roughly the same amount as that of xylazine) and antibiotic cephradine were administered at the time of awakening after surgery. The pain reliever Zalban was administered for two days after surgery, and the monkeys were observed regularly every day to confirm the absence of post-surgical abnormalities. In laparoscopic observation, anesthesia and post-surgical monitoring were also performed in the same way.
Laparoscopic observation was carried out four months, nine months (3 months after administration), and 12 months (6 months after administration) following the surgical induction of endometriosis described above, and the pathological conditions of endometriosis were assessed as follows.
The abdomen was incised in the median line under anesthesia, and laparoscopic observation was performed by inserting a trocar and then introducing a laparoscope. The laparoscope was connected to a video system (KARL STORZ) and a monitor. The monitor was used for intraperitoneal observation, and the video system was used for recording. Then, the peritoneal cavity was filled with carbon dioxide gas using Intra-abdominal Insufflation Unit (OLYMPUS) to expand the abdomen, and graduated bars and forceps were inserted from the ventral portion. The size of the lesion was measured using the graduated bar or graduated forceps.
The sizes (width, height, and depth) of nodular lesions formed by suturing the endometrial tissues were measured and the volumes were calculated based on: width (mm)×height (mm)×depth (mm). The lesions and adhesion formed by seeding endometrial tissues after fine cutting were assessed for the site, area, and depth of adhesion and the size of lesion by laparoscopic observation based on modified r-AFS score modified for monkeys from the r-AFS score for clinical use.
1. The item on adhesion to the vesicouterine pouch was added, because in the monkey model, the frequency of adhesion to the urinary bladder is higher than in humans. The method for assessing adhesion to the urinary bladder was the same scoring as that used for adhesion to the Douglas' pouch. 2. Since monkey's body and organ sizes are smaller than those of humans, the criteria of lesion size scoring were altered to: <3 mm, 3-10 mm, and >10 mm
The grouping was performed in two separate times. After randomization based on the mean volume of nodular lesions and the number of measurable lesions in each individual, eventually, six individuals were assigned to vehicle group and seven individuals were assigned to the antibody H1009/L395-F1974m-administered group. […]

B1: H1009/L395-F1974m: H1009-F1974m (SEQ ID NO:36) heavy chain, L395-kOMT light chain; the anti-IL-8 antibody of Table 29 (antibody)
heavy: QVQLVESGGGLVQPGGSLRLSCAASGFTFSDYYLSWVRQAPGKGLEWVGLIRNKDNYHTPEYSASVKGRFTISRDDSKNSLYLTMSDLKTEDTAVYYCARENHRYDVELAYWGQGTLVTVSSASTKGPSVFPLAPSSKSTSGGTAALGCLVKDYFPEPVTVSWNSGALTSGVHTFPAVLQSSGLYSLSSVVTVPSSSLGTQTYICNVNHKPSNTKVDKKVEPKSCDKTHTCPPCPAPELRRGPSVFLFPPKPKDTLMISRTPEVTCVVVDVSHEDPEVKFNWYVDGVEVHNAKTKPREEQYNSTYRVVSVLTVLHQDWLNGKEYKCKVSNKGLPSSIEKTISKAKGQPREPQVYTLPPSREEMTKNQVSLTCLVKGFYPSDIAVEWESNGQPENNYKTTPPVLDSDGSFFLYSKLTVDKSRWQQGNVFSCSVLHEALHAHTTRKELSLSP
light: DIQMTQSPSSLSASVGDRVTITCRASEIIYSYLAWYQQKPGKAPKLLIYKAKTHADGVPSRFSGSGSGTDFTFTISSLQPEDIATYYCKHHFGFPRTFGQGTKVEIKRTVAAPSVFIFPPSDEQLKSGTASVVCLLNNFYPREAKVQWKVDNALQSGNSQESVTEQDSKDSTYSLSSTLTLSKADYEKHKVYACEVTHQGLSSPVTKSFNRGEC
- frequency of nodular lesions of type A: proliferative, ≥500 mm3 (10 mg/kg i.v. q4w, 6 months): 0%
- frequency of nodular lesions of type B: proliferative, <500 mm^3 (10 mg/kg i.v. q4w, 6 months): 8%
- frequency of nodular lesions of type C: no change (10 mg/kg i.v. q4w, 6 months): 33%
- frequency of nodular lesions of type D: decreased (10 mg/kg i.v. q4w, 6 months): 58%
- nodular lesions of type A: proliferative, ≥500 mm3 (lesions/total lesions) (10 mg/kg i.v. q4w, 6 months): (0/12)
- nodular lesions of type B: proliferative, <500 mm^3 (lesions/total lesions) (10 mg/kg i.v. q4w, 6 months): (1/12)
- nodular lesions of type C: no change (lesions/total lesions) (10 mg/kg i.v. q4w, 6 months): (4/12)
- nodular lesions of type D: decreased (lesions/total lesions) (10 mg/kg i.v. q4w, 6 months): (7/12)
- change of size r-AFS score (after vs before administration, compared to vehicle group): tended to decrease
- change of total r-AFS score (after vs before administration, compared to vehicle group, p=0.0070): clearly decreased as compared to the vehicle group
- change of adhesion score (adhesion r-AFS score) (after vs before administration, compared to vehicle group, p=0.0096): clearly decreased as compared to the vehicle group
- frequency of deep lesions (endometriosis gland ducts invaded up to the muscle layer of abdominal wall) (anti-antibody-positive individuals excluded, vehicle 5/18 lesions): 1/11
- hemosiderin observed (lesions/total) (antibody administration group, vehicle 9/16): 4/17
- hemosiderin observed (percent of lesions) (antibody administration group, vehicle 56%): 24%
- total modified r-AFS score before and after administration (scores recorded by the practitioner during laparoscopic surgery, P=0.875): the score did not change
